Laboratory results from PMC8466066, “Searching for Biological Function of the Mysterious PA2504 Protein from Pseudomonas aeruginosa” (International Journal of Molecular Sciences, 2021).

Biological target: the molecule itself
Experiment: SEC-MALS; purified recombinant PA2504 on a Superdex200 column with HELEOS light scattering instrument; 50 mM Tris-Cl pH 7.0, 300 mM NaCl, 0.5 mL/min

B1: His6-tagged PA2504, recombinant, purified from E. coli (plasmid pQE2504) (natural protein)
chain: MASWTLVDASAIAVRHPYTFYKPDAETIDRVAAGESVKLIFAFDTDNPDAPRAERLWVTVEGIEADGAFSGRLDNYPQYIRDLSLGERIVFEARHIINTEHDPRETPISRYARRCFVTRRVIDEGKAVGYLYREAPEEENDSGWRLMAGDESDDYMNTAGTTAYVSLGSVLNADDSILPLLDAPPGRAFERLADGSFIEVQGPEG
notes: PA2504, uncharacterised protein of Pseudomonas aeruginosa; the PA2504 gene without the start codon cloned into pQE-80L; Dimer by SEC-MALS; No removal of the tag is described; also called His6PA2504; recombinant PA2504 protein; source: E. coli BL21-DE3, purified (Ni-NTA)
  stoichiometry N: 2
